Test results reported in the nanobody polyreactivity screen of Harvey et al. (2022).

assay: yeast display, Sf9 membrane polyspecificity reagent, FACS + sequencing; frameworks hold sequencing errors
In short: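 Nanobodies came from a synthetic yeast display library in Saccharomyces cerevisiae BJ5465, induced with galactose for 36–48 hours and stained for 1 hour at 4 °C with 10% biotinylated, detergent-solubilized Sf9 membrane reagent. Cells were enriched on streptavidin microbeads and then FACS-sorted, with low and high (top ~1%) gates set on anti-HA fluorescence for expression and streptavidin fluorescence for reagent binding. Each polyreactivity label reflects the gate a clone came from. Genes were amplified by colony PCR, sequenced by MiSeq 2 × 250 and filtered by CDR length.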

Sequence | polyreactivity (PSR sort gate)
QVQLVESGGGLVQAGGSLRLSCAASGRNFDYYTMGWYRQAPGKERELVARIRRSAGTTYYADSVKGRFTISRDNAKNPVYCQMNSLIPEDTAVYYCNVVPYFKYGYWGQGTQVTGSS | low polyreactivity
QVQLVESGGGLVQAGGSLRLSCAASGRNFFTYAMGWYRQAPGKERELVAAIDRSGTSTNYADSVKGRFTISRDNANNTVYLHMHSLKPEDTAVYYCAARPNPYYDEMDYWGQGTQVTVSS | low polyreactivity
QVQLVESGGGLVQAGGSLRLSCAASGRNFGLNAMGWYRQAPGKERELVAAIDQGDGITYYADSVKGRFTISRDNAKNTVYLQMNSLKTEDTAVYYCAAEVSYKEIYQYYWIYPAYNYWGQGTQVTVSS | high polyreactivity
QVQLVESGGGLVQAGGSLRLSCAASGRNFGYYVMGWYRQAPGKERELVAAIRSSADSTYYADSVKGRFTISRDNAKNTVYLQMNSLKPEDTAVYYCAAQSPAYYTKCYWGQGTQVTVSS | low polyreactivity
QVQLVESGGGLVQAGGSLRLSCAASGRNFHRYAMGWYRQAPGKERELVATIRSGGGTYYADSVKGRFTISRDNAKNTVYLQMNSLKPEDTAVYDCNAQSSYSYFSGYDYWGQGTQVTVSS | low polyreactivity
QVQLVESGGGLVQAGGSLRLSCAASGRNFKYYAMGWYRPAPGKERELVAAISWSGGSTYYADSVKGRFTISRDNAKNTVYLQMNSLKPEDTAVYYCATYGGLTKFRLAYDYWGQGTQVTVSS | high polyreactivity
QVQLVESGGGLVQAGGSLRLSCAASGRNFPVNAMGWYRQAPGKERELVAAISTTGARTYYADSVKGRFTISRDNAKNTVYLQMNSLKPEDTAVYYCAAKQFSVTLSNYWGQGTQVTVSS | low polyreactivity
QVQLVESGGGLVQAGGSLRLSCAASGRNFRVNAMGWYTQAPGKERELVAAISWIGGRTYYADSVKGRFTISRDNAKNTVYLQMNSLKPEDTAVYYCAAGTRRYYYWKYDYWGQGTQVTVSS | high polyreactivity
QVQLVESGGGLVQAGGSLRLSCAASGRNFTDNDMGWYIQAPGKEMDLVAGINWSSGSTYYADSVKGRFTISRDNAKNTVYLQMNSLKTEDTAVYYCNALGYWRSTVHFVVGEVDYWGQGTQVTLSS | low polyreactivity
QVQLVESGGGLVQAGGSLRLSCAASGRNFTRNAMGWYRQAPGKEREFVAAISWSGGSTYYADSVKGRFTLSRDNAKNTVYVQMNSLKPEDTAVYYCAAKNCGGYVSWYDYWGQGTQVTVSS | low polyreactivity
QVQLVESGGGLVQAGGSLRLSCAASGRNFVAYTMGWSRQAPGKERELVAAIRIIGGSTYYADSVKGRFTISRDNAKNTVYLQMNSLKPVDTAVYFCDTPYAYPGTVQYAGYNYWGQGTQVTVSS | high polyreactivity
QVQLVESGGGLVQAGGSLRLSCAASGRNFYGNAMGWYRQAPGKERELVAAISSGTSTNYADSVKGRFTISRDNAKNTVYLQMNSLKPEDTAVYYCAAGSYSRYLYSLYFDFDYWGQGTQVTVSS | low polyreactivity
QVQLVESGGGLVQAGGSLRLSCAASGRNFYVYAMGWYRQAPGKEREFVASITVSGSSTYYADSVKGRFTISRDNAKNTVYLQMNSLKPEDTAVYYCNTDAVRSYVWWGTSLYDYWGQGTLVTVSS | low polyreactivity
QVQLVESGGGLVQAGGSLRLSCAASGRNFYYNAMGWYRQAPGKEREFVAGISYGGTTTYYADSVKGRFTISRDNAKNTVYLLMNSLKPEDTAVYYCAAGYTWRQSWYPFDYWGQGTQVTVSS | high polyreactivity
QVQLVESGGGLVQAGGSLRLSCAASGRNIWGYTMGWYRQAPGKERDLVAAIRFTSGSTYYADSVKGRFTISRDNAKNSVYLQMNSLKPEDTAVYYCATPYVQTGSGYTGVYWGQGTQVTVSS | high polyreactivity
QVQLVESGGGLVQAGGSLRLSCAASGRNLQQYVMGWYRQAPGKERELVAAITRGGRTNYADSVKGRFTISRDYAKNTVYLLMNSLKQEDTAVYYCKTRYPSRVVAWLDYWGQGTQVNVSS | low polyreactivity
QVQLVESGGGLVQAGGSLRLSCAASGRNYGNAMGWYRQAPGKERELVAAISAGGGRTYYADSVKGRFTISRDNAKNTVYLQMNSLKPEDTAVYYCAADTTLQAFIRYRPIGSYDSWGQGTQVTVSS | low polyreactivity
QVQLVESGGGLVQAGGSLRLSCAASGRNYWVYAMGWYREAPGKERELVASIDSGSRTTYADSVKGRFTISRDNAKNTVYLQMISLKQEDTAVYYSATSSYTYSPRVWYRWRRDYWGQGTQVNVSS | high polyreactivity
QVQLVESGGGLVQAGGSLRLSCAASGRPFKPYAMGWYRPAPGKERELVAVISSTGSTKYADSVKGRFTISRDNAKNTVYLQMNSLKPEDTAVYYCNAGSLYSDRWVKRKYDYSGQGTQVTVSS | high polyreactivity
QVQLVESGGGLVQAGGSLRLSCAASGRPFYKNTMGWYRQAPGKEREFVATISASGGSTYYADSVKGRFSSSRDNATNTVYLQMNSLKPEDTAVYYCAKRDYAGYAVHIGGDMNYWGQGTQVTVSS | low polyreactivity

Sequence | polyreactivity (PSR sort gate)
QVQLVESGGGLVQAGGSLRLSCAASGRPLGQNVMGWYRQAPGKERELVAASSSNTAGNTYYADSVKGRFTISRDNAKNTVYLQMNSLKAEDTAVYYCAKVDSFEAKLDYWGQGTQVTVSS | low polyreactivity
QVQLVESGGGLVQAGGSLRLSCAASGRPSLLMLWDGIDRRLGKKGSWLPLLTLVTPTTYADSVKGRFTISRDNAKNTVYLQMNSLKPEDTAVYYCNADFRPLDHYVNWYYYWGQGTQVTVSS | low polyreactivity
QVQLVESGGGLVQAGGSLRLSCAASGRSFCSYAMGWYRHAPGKERELVAAITSGGSTNYADSVKGRFTISRDNAKNTVYLQMNSLKPEVTAVYYCAAVEYLRESDYWGQGTQVTVSS | low polyreactivity
QVQLVESGGGLVQAGGSLRLSCAASGRSFCYNAMGWYSQAPGKERELVAGISSSGGTTYYADSVKGRFTISRDKAKNTVYLQMNSLKPEDTAVYYCAKRFSLLSTVRWGRYNYWGQGTQVTVSS | high polyreactivity
QVQLVESGGGLVQAGGSLRLSCAASGRSFDRYAMGWYRQAPGKERELVAGITASGGSTYYADSVKGRFTISRDNAKNTVYLQMNSLKPEDTAVYYCAVVYGYRYYYWGQGTQVTVSS | high polyreactivity
QVQLVESGGGLVQAGGSLRLSCAASGRSFGLYAMGWYRQAPGKERELVAAISYSGGRTYYADSVKRRFTLSRDNAKKTVYLQRNILKPEDTGVYYCNKAWFPYYYYRFDYWGQGTQVTVSS | high polyreactivity
QVQLVESGGGLVQAGGSLRLSCAASGRSFTPYARGWYRQAPGKERELVAAISTIGGTTYADSVKGRFTISRDNAKNTVYLQRNSLKPEDTAVYYCAAERPPYPGNGRDYWGQGTQVTVSS | high polyreactivity
QVQLVESGGGLVQAGGSLRLSCAASGRSFWRNAMGWYRQAPGRERELVAAMSRGGSTNYADSVKGRFTMSRDNAKKTVYLPMNSLKPEDTAVYYCAARYYYRYNYWRQGTQVTVSS | high polyreactivity
QVQLVESGGGLVQAGGSLRLSCAASGRSFYRNAMGWYRQAPGKERELVAAITSSGASTYYADSVKGRFTISRDNAKNTVYLQMNSLKPEDTAVYYCAAKYVYSVGNYRYDYWGQGTQVTVSS | low polyreactivity
QVQLVESGGGLVQAGGSLRLSCAASGRSIRIYAMGWYRQAPGKERELVAAIRWSGGTTYYADSVKGRFTISRDNAKNTVYLQMNSLKPEDTAVYYCAADSTNRYDYWGQGTQVTVSS | high polyreactivity
QVQLVESGGGLVQAGGSLRLSCAASGRSIYRNAMGWYRQAPGKERELVAAISGRGGGTYYADSVKGRFTLSRDNAKNTVYLQMNSVKPEETAVYYCAAERKNKYDYWGQGTQVTVSS | high polyreactivity
QVQLVESGGGLVQAGGSLRLSCAASGRTALRNAMGWYRQAPGKEREFVADIRWSGGSTYYADSVKGRFTISRDKAKNTVYLQMNSQKPEDTAVYYCAAGYVRYPYWYYYWGQGTQVTVSS | high polyreactivity
QVQLVESGGGLVQAGGSLRLSCAASGRTCGKYAMGWYRQAPGKERELVATISRSGGSTYYADSVKGRFTISRDTAKYTVYLQMNSLKPEDTAVYYCNAVTSRYIWPPVLDRYHYWGQGTQVTLSS | high polyreactivity
QVQLVESGGGLVQAGGSLRLSCAASGRTDNTNAMGWYRQAPGKERELVAAITRSGDSTYYADSVKGRFTISRDNAKNTVYLQMNSLKPEDTAVYYCAAYSRTLYPDRYYWGQGTQVTVSS | high polyreactivity
QVQLVESGGGLVQAGGSLRLSCAASGRTDRTNAMGWYRQAPGKERELVAAISTGGGITNYADSVKGRITISRDNAKNTVYLQMNSLKPEDTAVYYCNADIYTWFQIGGYQYDYWGQGTHVTVSS | low polyreactivity
QVQLVESGGGLVQAGGSLRLSCAASGRTFAAYDMGWYRQAPGKERELVAAITSGGSTNYADSVKGRFTISRDNAKNTVYLQMNSLKPEDTAVYYCNARFRKWPQARYGVRYYYWGQGTQVTVSS | high polyreactivity
QVQLVESGGGLVQAGGSLRLSCAASGRTFADFTMGWYRQAPGKERELVAAISFSGGSTYYADSVKGRFTISRDNAKNTVYLHMNSLKPEDTAVYYCAAGHKRRAPRYYDWGQGTQVTVSS | high polyreactivity
QVQLVESGGGLVQAGGSLRLSCAASGRTFADYVMGWYRQAPGKERELVAAITSSGGSTYYADSVKGRFTISRDNAKNTVYLQMNSLKPEDTAVYYCAAQQSPSVDYWGQGTQVTVSS | low polyreactivity
QVQLVESGGGLVQAGGSLRLSCAASGRTFAGYVMGWYRQAPGKERELVAAISTSGGSTYYADSVKGRFTISRDNAKNTVYLQMNSLKPEDTAVYYCNVYLKHRYYNQMDYWGQGTQVTVSS | high polyreactivity
QVQLVESGGGLVQAGGSLRLSCAASGRTFALNVMGWYRQAPGKERELVAAISRSGGSTYYADSVTGRFTISRDNAKNTVYFQMNSLKPEDTAVYYGAAATHYQSYNRRDYWGEGTQVTVSS | high polyreactivity
